Source: the supplement of paper PMC10724198
± gives the standard deviation of the averaged measurements.

Test system: Saccharomyces cerevisiae
Experiment: protein stability index of tFT-peptide fusion (C-terminal peptide) (PSI (0-1 scale)); higher = more stable (slower turnover)
Settings: genetic background: wild type; temperature: 30 C
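Further: PSI is a weighted mean of sequencing reads over stability bins, variants kept only with over 10 reads, mCherry proximal and sfGFP distal, peptide attached via GGGS linker.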

Sequence | protein stability index
KKKKHKAKGKIG | 0.695 ± 0.049
KKKKKKDQKNKK | 0.734 ± 0.057
KKKKKKKGIILD | 0.737 ± 0.097
KKKKKKKKKPEK | 0.708 ± 0.022
KKKKKKKKRARY | 0.657 ± 0.0063
KKKKKKKNKKRK | 0.683 ± 0.019
KKKKKKKNRETK | 0.655 ± 0.042
KKKKKKKTKKKK | 0.78 ± 0.034
KKKKKKQEKNKK | 0.694 ± 0.042
KKKKKKRQKNTK | 0.691 ± 0.03
KKKKKSKIEKKD | 0.725 ± 0.077
KKKKKSKKKTKT | 0.668 ± 0.0037
KKKKKSKKQKKK | 0.733 ± 0.019
KKKKKTKNIKKT | 0.794 ± 0.059
KKKKQKIKKQRK | 0.63 ± 0.00095
KKKKQKKKRKRE | 0.718 ± 0.028
KKKKRKNNITKK | 0.74 ± 0.15
KKKKTEKKKTKQ | 0.656 ± 0.035
KKKKVKKQRISR | 0.713 ± 0.11
KKKMINEKKKKD | 0.701 ± 0.025
KKKNKNENKKPQ | 0.667 ± 0.021
KKKNTRKTTNIK | 0.708 ± 0.026
KKKQKKVSNKQT | 0.699 ± 0.044
KKKRIRNEYKKR | 0.68 ± 0.0071
KKKTSKVIIREG | 0.689 ± 0.0085
KKKVAITPQQTR | 0.685 ± 0.23

Sequence | protein stability index
KKMKKASTAKEL | 0.678 ± 0.025
KKNAHANKIGND | 0.639 ± 0.086
KKNEKKNRKKKN | 0.71 ± 0.022
KKNKKNQKKKNK | 0.663 ± 0.0072
KKNKLKDSIKNI | 0.663 ± 0.016
KKNKRMKVREKK | 0.609 ± 0.034
KKNLKTKKRQNI | 0.66 ± 0.01
KKNNKKNNKKKQ | 0.678 ± 0.078
KKNQKKNEKHIK | 0.689 ± 0.041
KKQKKKKKRNRK | 0.654 ± 0.028
KKRKKKEKKRKK | 0.773 ± 0.17
KKRRTKKENNNI | 0.687 ± 0.0089
KKSRLRNNPADC | 0.7 ± 0.031
KKTKNKKRIIRT | 0.724 ± 0.051
KKTLWRKITMQK | 0.7193 ± 0.0057
KKTYQQKIEEVV | 0.782 ± 0.14
KKVKMIKEIRRG | 0.745 ± 0.044
KKVLKFTKKKKP | 0.599 ± 0.048
KLGNVRGPSYSL | 0.709 ± 0.056
KLGRIWNFTLSA | 0.6284 ± 0.001
KLKKKKISNVEN | 0.612 ± 0.0081
KLNMLLYNNQEK | 0.631 ± 0.039
KLREYGGLPISC | 0.677 ± 0.0087
KMKRSNADAVEP | 0.678 ± 0.03
KNAAGERGGKEG | 0.644 ± 0.044
KNCKEQRKTIQI | 0.713 ± 0.026

Sequence | protein stability index
KNDRKLIKRILK | 0.728 ± 0.093
KNEKNERKIATQ | 0.682 ± 0.016
KNESIRKKKPKK | 0.734 ± 0.033
KNGANREEYITK | 0.686 ± 0.028
KNIERKKNTKIR | 0.714 ± 0.017
KNIRKITHGIGN | 0.623 ± 0.072
KNKKKKKRRTRK | 0.732 ± 0.067
KNQLKKPINKSK | 0.734 ± 0.13
KNRKSPSMNSKE | 0.716 ± 0.017
KNTKKKNRKKKN | 0.7419 ± 0.0026
KNTNQKKKKKNT | 0.718 ± 0.044
KNVKETERKVTS | 0.565 ± 0.023
KPKKKKKDEQTI | 0.672 ± 0.035
KPPNRQCLYDAL | 0.721 ± 0.094
KPVGLPGRIRLG | 0.751 ± 0.02
KQKKKRKSRRKK | 0.6504 ± 0.0033
KQKKTQKIYTMR | 0.728 ± 0.059
KQKNKTNKKNTK | 0.661 ± 0.025
KQLEKRKRIIEE | 0.7644 ± 0.0035
KQLPVLSAEVLS | 0.648 ± 0.035
KQNAHKKINKYE | 0.75 ± 0.02
KQSNGEFNIATP | 0.648 ± 0.046
KQTEKEPKKGES | 0.7123 ± 0.0028
KRCHPVYVRGGG | 0.568 ± 0.013
KRDFILFSASVD | 0.627 ± 0.051
KRDVRRLYRKRV | 0.7052 ± 0.0068

Sequence | protein stability index
KRGKKNEESRRD | 0.68 ± 0.085
KRIVGIFINRKI | 0.586 ± 0.0096
KRKEKKKEKRRK | 0.714 ± 0.022
KRKKKKEQTKKK | 0.752 ± 0.11
KRKKKRQKNKGK | 0.766 ± 0.13
KRKKQERKREKK | 0.692 ± 0.05
KRKKQKKNQQNR | 0.682 ± 0.019
KRKRKKKSEKEE | 0.652 ± 0.025
KRLKRKSNLERE | 0.69 ± 0.047
KRMKNELDIGMK | 0.7049 ± 0.0032
KRNIKKKKTNLR | 0.675 ± 0.087
KRNKDFIYTYRL | 0.696 ± 0.013
KRQWAGRDGEGR | 0.662 ± 0.0068
KRRGECEGGRRG | 0.672 ± 0.044
KRRKKTQESSKA | 0.726 ± 0.049
KRSNKGAKKKGK | 0.672 ± 0.041
KRTEHTHDRKIK | 0.721 ± 0.034
KSILTRTVNSNQ | 0.6592 ± 0.0031
KSKKDQKKNHKK | 0.712 ± 0.0076
KSNRCVQSKRQQ | 0.686 ± 0.037
KTERRKEENTGE | 0.665 ± 0.041
KTGIQTEIRYKE | 0.63727 ± 0.00029
KTHKKRYRKGNT | 0.725 ± 0.12
KTKKENGRGEKN | 0.697 ± 0.04
KTKKIWKKKSNI | 0.713 ± 0.011
KTKRMKSIKKSK | 0.7099 ± 0.0046

Sequence | protein stability index
KTNLSNRKKHKG | 0.653 ± 0.051
KTRTGMWDEQGV | 0.701 ± 0.016
KTTSRIKEIIQK | 0.606 ± 0.017
KVEQLPAREAPC | 0.6556 ± 0.0039
KVFHTDSNPNNK | 0.663 ± 0.016
KVGKRQGFSVYV | 0.684 ± 0.022
KVLRKQRLKGRE | 0.5238 ± 0.0015
KVMSLACRLTSE | 0.843 ± 0.11
KVPNEIKRYVFI | 0.66446 ± 8.8e-05
KYIGHSENATSK | 0.71 ± 0.067
KYKVGLWHRVAK | 0.68 ± 0.16
LADFGREKNSLG | 0.703 ± 0.0068
LADLSAPAPCLP | 0.689 ± 0.091
LAGLNDSVRRAV | 0.749 ± 0.036
LAGLRLPNDLGP | 0.712 ± 0.059
LAGSHSRTQGRT | 0.695 ± 0.037
LAGVSSPLPPPP | 0.685 ± 0.025
LAPALSHSPPLT | 0.715 ± 0.078
LARGGAAIGGES | 0.729 ± 0.086
LAVPPSLPPPTR | 0.7254 ± 0.0063
LCDLGLMLFPFV | 0.666 ± 0.032
LCFGGLVLFSFG | 0.601 ± 0.035
LCGAVVEGGGEE | 0.5743 ± 0.004
LCLFSVRPARLL | 0.753 ± 0.13
LCLGVLRSDCVV | 0.675 ± 0.011
LCLREPTITTQW | 0.786 ± 0.3

Sequence | protein stability index
LCPPPRPPRSHL | 0.941 ± 0.039
LCSRICGVVARA | 0.613 ± 0.042
LCVVRGLLCSPL | 0.628 ± 0.0092
LDAMNTSWYVKM | 0.676 ± 0.025
LDARYRSSVGFK | 0.68876 ± 0.00018
LDGAGFLLSWYH | 0.749 ± 0.013
LDGIKVKFRRSL | 0.698 ± 0.013
LDKGNQDHEWTR | 0.654 ± 0.023
LDLAMRQYDLTG | 0.681 ± 0.06
LDSGSVYMSRDI | 0.652 ± 0.015
LDSRSELGRGLK | 0.714 ± 0.018
LDVFPVWSDANA | 0.714 ± 0.031
LEGGAGRPDGTG | 0.671 ± 0.047
LEGILFGPKIAT | 0.6227 ± 0.0049
LEHPAHPTKLQL | 0.7067 ± 0.0033
LEKKRRKNKKEG | 0.787 ± 0.14
LEMTGGACGGGK | 0.675 ± 0.029
LEPGSYRKRKPP | 0.587 ± 0.023
LERKRKYSPHDQ | 0.677 ± 0.025
LERSSHRTEFLS | 0.587 ± 0.032
LEYLGFSLSGFR | 0.724 ± 0.016
LFAAPARTSAPC | 0.779 ± 0.055
LFCVAPLGSVSY | 0.652 ± 0.033
LFFGVACSWFSV | 0.621 ± 0.013
LFGFLGVAACVV | 0.483 ± 0.048
LFHAPLFPPSSF | 0.657 ± 0.04

Sequence | protein stability index
LFLEGWIRKGVR | 0.7427 ± 0.0059
LFLPLPRCHALP | 0.7037 ± 0.0066
LFLSLSGSYRCI | 0.532 ± 0.079
LFPLSSPFPSTS | 0.766 ± 0.23
LFPPPPSPLGHS | 0.75227 ± 0.00052
LFPYPPASALLR | 0.662 ± 0.019
LFSLFFPTCFRF | 0.557 ± 0.0092
LFSPPTFFLFHR | 0.6445 ± 0.0046
LFSSLNLFSSRD | 0.7355 ± 0.0033
LFVEFFACRSFN | 0.722 ± 0.011
LFVSLLGAFVVG | 0.529 ± 0.03
LFYFPVLSGFLA | 0.578 ± 0.002
LGAHRPLLSVLH | 0.661 ± 0.037
LGFPSFFPNVSV | 0.6946 ± 0.0017
LGGGAGAPPSHW | 0.7 ± 0.024
LGGPGAVWGRGR | 0.697 ± 0.0084
LGGWVGGRGVRG | 0.717 ± 0.096
LGIGTWGHRGDD | 0.712 ± 0.015
LGLSTLLVPHTR | 0.743 ± 0.028
LGNPVLRFILEK | 0.597 ± 0.094
LGPLILDGATDC | 0.688 ± 0.11
LGQWGGGLSGSV | 0.685 ± 0.033
LGRGEVWYIDRG | 0.696 ± 0.017
LGRRHAYGSALS | 0.708 ± 0.12
LGSAIQGFLILT | 0.5996 ± 0.0017
LGSSGCVLVGWG | 0.683 ± 0.0084

Sequence | protein stability index
LGSSPPPTLPPP | 0.701 ± 0.031
LGVGVGGRGVRG | 0.745 ± 0.0098
LGVLGGGRRFGV | 0.715 ± 0.019
LGVRSGGSWRAG | 0.792 ± 0.064
LGVVCLGADLLR | 0.693 ± 0.026
LHAPFPLPPPPP | 0.647 ± 0.026
LHCLGFWRVMYG | 0.6538 ± 0.0011
LHCPRICYSPHL | 0.715 ± 0.059
LHEHHSFCFRLL | 0.658 ± 0.1
LHFYSLMEFQCD | 0.695 ± 0.038
LHHPPSPLRNPP | 0.687 ± 0.059
LHHYPLVISGVS | 0.47 ± 0.12
LHPPLPPLPFSA | 0.679 ± 0.017
LHVPPSPFPTPP | 0.679 ± 0.049
LIAGLNLASYGL | 0.643 ± 0.1
LIALSLPSSFVF | 0.594 ± 0.025
LICVSTLAPSGQ | 0.676 ± 0.0078
LIFACIYFSGVV | 0.644 ± 0.047
LIGASFGLYPVS | 0.693 ± 0.07
LIHCVSTFRCGE | 0.622 ± 0.026
